{
  "source": "patent US20040176301A1",
  "about": "(CYCLACEL, published 2004)",
  "assay_in_all_cases": "cell-based or functional assay",
  "key": {"CDK2/cyclin A [1]": {"target": "T1, CDK2/cyclin A (UniProt P24941 1-298; P20248 1-432)"}, "CDK2/cyclin A [2]": {"target": "T1, CDK2/cyclin A", "remark": "listed apart in the source"}, "CDK2/cyclin A [3]": {"target": "T1, CDK2/cyclin A", "remark": "listed apart in the source"}, "CDK2/cyclin A [4]": {"target": "T1, CDK2/cyclin A", "remark": "listed apart in the source"}, "CDK2/cyclin A [5]": {"target": "T1, CDK2/cyclin A", "remark": "listed apart in the source"}},
  "note": "Where two headings read alike, the source gives them in different places. Numbered stars: 1 amine (or outer) side, 2 acyl side, 3 side chain; on linkers, the order of the positions; unused ones are H or OH. Square brackets hold non-standard residues; d marks the D form. Phe(3R-OH) = O=C([C@@H](N[*:1])[C@H](O[*:3])c1ccccc1)[*:2]; Phe(4-F) = N[C@@H](Cc1ccc(F)cc1)C(=O)O; 1Nal = N[C@@H](Cc1cccc2ccccc12)C(=O)O; Cha = N[C@@H](CC1CCCCC1)C(=O)O; Cit = NC(=O)NCCC[C@H](N)C(=O)O; Psa = O-acetylphenylserine; Nva = CCC[C@H](N)C(=O)O; Abu = CC[C@H](N)C(=O)O; dPse = D-phenylserine",
  "data": [
    {"binder": "H-AAKR[Cit]LI[Phe(4-F)]-NH2 (SMILES CC[C@H](C)[C@H](NC(=O)[C@H](CC(C)C)NC(=O)[C@H](CCCNC(N)=O)NC(=O)[C@H](CCCNC(=N)N)NC(=O)[C@H](CCCCN)NC(=O)[C@H](C)NC(=O)[C@H](C)N)C(=O)N[C@@H](Cc1ccc(F)cc1)C(N)=O)", "note": "[H-Ala-Ala-Lys-Arg-Cit-Leu-Ile-pFPhe-NH2]", "values": [
      {"measurement": "Relative activity, Kinase Inhibition (CDK2/cyclin A kinase assay, pRb substrate, [ATP] = 100 µM)", "setting": "CDK2/cyclin A [1]", "result": "10 relative to H-His-Ala-Lys-Arg-Arg-Leu-Ile-Phe-NH2 (=1)"}
    ]},
    {"binder": "H-HAKRRLI[dPse]-OH", "note": "[H-His-Ala-Lys-Arg-Arg-Leu-Ile-D-Pse-OH]", "values": [
      {"measurement": "Relative activity, Kinase Inhibition (CDK2/cyclin A kinase assay, pRb substrate, [ATP] = 100 µM)", "setting": "CDK2/cyclin A [2]", "result": "< 0.1 relative to H-His-Ala-Lys-Arg-Arg-Leu-Ile-Phe-NH2 (=1)"}
    ]},
    {"binder": "H-HAKRRLI[Phe(3R-OH)]-OH", "note": "[H-His-Ala-Lys-Arg-Arg-Leu-Ile-L-Pse-OH]", "values": [
      {"measurement": "Relative activity, Kinase Inhibition (CDK2/cyclin A kinase assay, pRb substrate, [ATP] = 100 µM)", "setting": "CDK2/cyclin A [2]", "result": "< 0.1 relative to H-His-Ala-Lys-Arg-Arg-Leu-Ile-Phe-NH2 (=1)"}
    ]},
    {"binder": "H-HAKRR[1Nal]IF-NH2 (SMILES CC[C@H](C)[C@H](NC(=O)[C@H](Cc1cccc2ccccc12)NC(=O)[C@H](CCCNC(=N)N)NC(=O)[C@H](CCCNC(=N)N)NC(=O)[C@H](CCCCN)NC(=O)[C@H](C)NC(=O)[C@@H](N)Cc1c[nH]cn1)C(=O)N[C@@H](Cc1ccccc1)C(N)=O)", "note": "[H-His-Ala-Lys-Arg-Arg-1Nap-Ile-Phe-NH2]", "values": [
      {"measurement": "Relative activity, Kinase Inhibition (CDK2/cyclin A kinase assay, pRb substrate, [ATP] = 100 µM)", "setting": "CDK2/cyclin A [3]", "result": "< 0.1 relative to H-His-Ala-Lys-Arg-Arg-Leu-Ile-Phe-NH2 (=1)"}
    ]},
    {"binder": "H-HVKRRLIF-NH2", "note": "[H-His-Val-Lys-Arg-Arg-Leu-Ile-Phe-NH2]", "values": [
      {"measurement": "Relative activity, Kinase Inhibition (CDK2/cyclin A kinase assay, pRb substrate, [ATP] = 100 µM)", "setting": "CDK2/cyclin A [4]", "result": "2 relative to H-His-Ala-Lys-Arg-Arg-Leu-Ile-Phe-NH2 (=1)"}
    ]},
    {"binder": "H-AAKRRLI[Phe(4-F)]-NH2 (SMILES CC[C@H](C)[C@H](NC(=O)[C@H](CC(C)C)NC(=O)[C@H](CCCNC(=N)N)NC(=O)[C@H](CCCNC(=N)N)NC(=O)[C@H](CCCCN)NC(=O)[C@H](C)NC(=O)[C@H](C)N)C(=O)N[C@@H](Cc1ccc(F)cc1)C(N)=O)", "note": "[H-Ala-Ala-Lys-Arg-Arg-Leu-Ile-pFPhe-NH2]", "values": [
      {"measurement": "Relative activity, Kinase Inhibition (CDK2/cyclin A kinase assay, pRb substrate, [ATP] = 100 µM)", "setting": "CDK2/cyclin A [1]", "result": "80 relative to H-His-Ala-Lys-Arg-Arg-Leu-Ile-Phe-NH2 (=1)"}
    ]},
    {"binder": "H-H[Abu]KRRLIF-NH2 (SMILES CC[C@H](NC(=O)[C@@H](N)Cc1c[nH]cn1)C(=O)N[C@@H](CCCCN)C(=O)N[C@@H](CCCNC(=N)N)C(=O)N[C@@H](CCCNC(=N)N)C(=O)N[C@@H](CC(C)C)C(=O)N[C@H](C(=O)N[C@@H](Cc1ccccc1)C(N)=O)[C@@H](C)CC)", "note": "[H-His-Abu-Lys-Arg-Arg-Leu-Ile-Phe-NH2]", "values": [
      {"measurement": "Relative activity, Kinase Inhibition (CDK2/cyclin A kinase assay, pRb substrate, [ATP] = 100 µM)", "setting": "CDK2/cyclin A [4]", "result": "5 relative to H-His-Ala-Lys-Arg-Arg-Leu-Ile-Phe-NH2 (=1)"}
    ]},
    {"binder": "H-HAKRRVIF-NH2", "note": "[H-His-Ala-Lys-Arg-Arg-Val-Ile-Phe-NH2]", "values": [
      {"measurement": "Relative activity, Kinase Inhibition (CDK2/cyclin A kinase assay, pRb substrate, [ATP] = 100 µM)", "setting": "CDK2/cyclin A [3]", "result": "< 0.1 relative to H-His-Ala-Lys-Arg-Arg-Leu-Ile-Phe-NH2 (=1)"}
    ]},
    {"binder": "H-HAKRRLF-NH2", "note": "[H-His-Ala-Lys-Arg-Arg-Leu-Phe-NH2]", "values": [
      {"measurement": "Relative activity, Kinase Inhibition (CDK2/cyclin A kinase assay, pRb substrate, [ATP] = 100 µM)", "setting": "CDK2/cyclin A [5]", "result": "< 0.1 relative to H-His-Ala-Lys-Arg-Arg-Leu-Ile-Phe-NH2 (=1)"}
    ]},
    {"binder": "H-HAKRR[Cha]IF-NH2 (SMILES CC[C@H](C)[C@H](NC(=O)[C@H](CC1CCCCC1)NC(=O)[C@H](CCCNC(=N)N)NC(=O)[C@H](CCCNC(=N)N)NC(=O)[C@H](CCCCN)NC(=O)[C@H](C)NC(=O)[C@@H](N)Cc1c[nH]cn1)C(=O)N[C@@H](Cc1ccccc1)C(N)=O)", "note": "[H-His-Ala-Lys-Arg-Arg-Cha-Ile-Phe-NH2]", "values": [
      {"measurement": "Relative activity, Kinase Inhibition (CDK2/cyclin A kinase assay, pRb substrate, [ATP] = 100 µM)", "setting": "CDK2/cyclin A [3]", "result": "< 0.1 relative to H-His-Ala-Lys-Arg-Arg-Leu-Ile-Phe-NH2 (=1)"}
    ]},
    {"binder": "H-AA[Abu]RRLI[Phe(4-F)]-NH2 (SMILES CC[C@H](NC(=O)[C@H](C)NC(=O)[C@H](C)N)C(=O)N[C@@H](CCCNC(=N)N)C(=O)N[C@@H](CCCNC(=N)N)C(=O)N[C@@H](CC(C)C)C(=O)N[C@H](C(=O)N[C@@H](Cc1ccc(F)cc1)C(N)=O)[C@@H](C)CC)", "note": "[H-Ala-Ala-Abu-Arg-Arg-Leu-Ile-pFPhe-NH2]", "values": [
      {"measurement": "Relative activity, Kinase Inhibition (CDK2/cyclin A kinase assay, pRb substrate, [ATP] = 100 µM)", "setting": "CDK2/cyclin A [1]", "result": "60 relative to H-His-Ala-Lys-Arg-Arg-Leu-Ile-Phe-NH2 (=1)"}
    ]},
    {"binder": "H-HAKRRIIF-NH2", "note": "[H-His-Ala-Lys-Arg-Arg-Ile-Ile-Phe-NH2]", "values": [
      {"measurement": "Relative activity, Kinase Inhibition (CDK2/cyclin A kinase assay, pRb substrate, [ATP] = 100 µM)", "setting": "CDK2/cyclin A [3]", "result": "1.5 relative to H-His-Ala-Lys-Arg-Arg-Leu-Ile-Phe-NH2 (=1)"}
    ]},
    {"binder": "H-HAKRRLI[Psa]-OH", "note": "[H-His-Ala-Lys-Arg-Arg-Leu-Ile-[L-Psa]-OH]", "values": [
      {"measurement": "Relative activity, Kinase Inhibition (CDK2/cyclin A kinase assay, pRb substrate, [ATP] = 100 µM)", "setting": "CDK2/cyclin A [2]", "result": "22 relative to H-His-Ala-Lys-Arg-Arg-Leu-Ile-Phe-NH2 (=1)"}
    ]},
    {"binder": "H-HAKRR[Nva]IF-NH2 (SMILES CCC[C@H](NC(=O)[C@H](CCCNC(=N)N)NC(=O)[C@H](CCCNC(=N)N)NC(=O)[C@H](CCCCN)NC(=O)[C@H](C)NC(=O)[C@@H](N)Cc1c[nH]cn1)C(=O)N[C@H](C(=O)N[C@@H](Cc1ccccc1)C(N)=O)[C@@H](C)CC)", "note": "[H-His-Ala-Lys-Arg-Arg-Nva-Ile-Phe-NH2]", "values": [
      {"measurement": "Relative activity, Kinase Inhibition (CDK2/cyclin A kinase assay, pRb substrate, [ATP] = 100 µM)", "setting": "CDK2/cyclin A [3]", "result": "< 0.1 relative to H-His-Ala-Lys-Arg-Arg-Leu-Ile-Phe-NH2 (=1)"}
    ]},
    {"binder": "H-HAKRRLFF-NH2", "note": "[H-His-Ala-Lys-Arg-Arg-Leu-Phe-Phe-NH2]", "values": [
      {"measurement": "Relative activity, Kinase Inhibition (CDK2/cyclin A kinase assay, pRb substrate, [ATP] = 100 µM)", "setting": "CDK2/cyclin A [5]", "result": "0.4 relative to H-His-Ala-Lys-Arg-Arg-Leu-Ile-Phe-NH2 (=1)"}
    ]}
  ]
}
